Experimental findings from US20250304643A1 (BAINAN BIOTECH, published 2025) are described below.

Experiment [1] deals with T1, human glucagon-like peptide-2 receptor (human, UniProt O95838 1-553).
T1 sequence (looked up): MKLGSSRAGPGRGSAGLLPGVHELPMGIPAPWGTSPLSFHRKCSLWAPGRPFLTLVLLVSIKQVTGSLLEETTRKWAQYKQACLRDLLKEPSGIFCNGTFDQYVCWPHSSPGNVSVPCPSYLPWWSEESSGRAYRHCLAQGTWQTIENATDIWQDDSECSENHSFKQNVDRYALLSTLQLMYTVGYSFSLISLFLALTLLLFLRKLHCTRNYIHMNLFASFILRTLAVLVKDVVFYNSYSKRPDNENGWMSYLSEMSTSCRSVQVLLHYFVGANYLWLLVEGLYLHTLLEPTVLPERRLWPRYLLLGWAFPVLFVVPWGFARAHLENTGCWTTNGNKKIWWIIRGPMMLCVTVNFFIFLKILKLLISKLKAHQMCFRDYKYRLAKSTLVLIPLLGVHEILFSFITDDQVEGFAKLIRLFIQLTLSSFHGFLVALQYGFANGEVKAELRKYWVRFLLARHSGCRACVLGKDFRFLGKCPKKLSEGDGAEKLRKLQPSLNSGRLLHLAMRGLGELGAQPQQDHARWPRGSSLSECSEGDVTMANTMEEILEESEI
Kind of experiment: cell-based or functional assay.

Experiment [2] concerns the target T2, human glucose-dependent insulinotropic polypeptide receptor (human, UniProt P48546 22-466).
T2 sequence (looked up): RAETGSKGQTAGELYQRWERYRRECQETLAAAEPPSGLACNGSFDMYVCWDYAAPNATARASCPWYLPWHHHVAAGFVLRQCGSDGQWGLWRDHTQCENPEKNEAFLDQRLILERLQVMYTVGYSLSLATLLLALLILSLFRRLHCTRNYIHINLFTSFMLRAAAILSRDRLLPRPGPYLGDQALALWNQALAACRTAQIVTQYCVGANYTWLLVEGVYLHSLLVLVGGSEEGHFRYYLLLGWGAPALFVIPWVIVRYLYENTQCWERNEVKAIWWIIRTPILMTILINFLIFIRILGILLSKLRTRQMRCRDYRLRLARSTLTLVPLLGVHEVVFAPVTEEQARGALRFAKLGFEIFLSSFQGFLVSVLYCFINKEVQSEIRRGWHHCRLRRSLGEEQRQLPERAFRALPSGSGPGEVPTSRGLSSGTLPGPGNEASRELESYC
Kind of experiment: cell-based or functional assay.

*1 amine or outer side, *2 acyl side, *3 side chain or, on linkers, in order; H or OH if unused. Side-chain parts run from the residue outwards. [ ]: non-standard residue; d: D form. The star is where a group is joined. C16 diacid = O=C(O)CCCCCCCCCCCCCCC(=O)*; γGlu = O=C(O)[C@H](CCC(=O)[*:2])N[*:1]; Palmitoyl = CCCCCCCCCCCCCCCC(=O)*; Aib = CC(C)(N)C(=O)O

As for Palmitoyl-HADGTFISDYSTILD[Aib]LAARDFINWLIQTKITKNDWKHNITQ-OH [Compound no. 16], in experiment [1], the “Efficacy GLP-2R” value turned out to be 64%. For the same molecule, in experiment [2], the “Efficacy GIPR” value stood at 99%.

B1: Compound no. 23 (peptide)
peptide: {C16 diacid}-H[Aib]DGTFISDYST[Aib]LDKLAARDFINWLIETKITK-OH
SMILES: CC[C@H](C)[C@H](NC(=O)[C@H](Cc1ccccc1)NC(=O)[C@H](CC(=O)O)NC(=O)[C@H](CCCNC(=N)N)NC(=O)[C@H](C)NC(=O)[C@H](C)NC(=O)[C@H](CC(C)C)NC(=O)[C@H](CCCCN)NC(=O)[C@H](CC(=O)O)NC(=O)[C@H](CC(C)C)NC(=O)C(C)(C)NC(=O)[C@@H](NC(=O)[C@H](CO)NC(=O)[C@H](Cc1ccc(O)cc1)NC(=O)[C@H](CC(=O)O)NC(=O)[C@H](CO)NC(=O)[C@@H](NC(=O)[C@H](Cc1ccccc1)NC(=O)[C@@H](NC(=O)CNC(=O)[C@H](CC(=O)O)NC(=O)C(C)(C)NC(=O)[C@H](Cc1c[nH]cn1)NC(=O)CCCCCCCCCCCCCCC(=O)O)[C@@H](C)O)[C@@H](C)CC)[C@@H](C)O)C(=O)N[C@@H](CC(N)=O)C(=O)N[C@@H](Cc1c[nH]c2ccccc12)C(=O)N[C@@H](CC(C)C)C(=O)N[C@H](C(=O)N[C@@H](CCC(=O)O)C(=O)N[C@H](C(=O)N[C@@H](CCCCN)C(=O)N[C@H](C(=O)N[C@H](C(=O)N[C@@H](CCCCN)C(=O)O)[C@@H](C)O)[C@@H](C)CC)[C@@H](C)O)[C@@H](C)CC
Consider B1, for which, in experiment [1], the “Efficacy GLP-2R” value was 86% and the “logEC50 GLP-2R” value worked out at 8.8. Also, in experiment [2], the “Efficacy GIPR” value is 107%.

Regarding Palmitoyl-HADGTFISDYSTILELLAARDFINWLIQTKITKNDWKHNITQ-OH [Compound no. 15], the “Efficacy GLP-2R” value in experiment [1] came out at 70%. In addition, the “Efficacy GIPR” value in experiment [2] turned out to be 106%.

B2: Compound no. 20 (peptide)
peptide: {C16 diacid}-H[Aib]DGTFISDYST[Aib]LDALAARDFIEWLIQTKITK-OH
SMILES: CC[C@H](C)[C@H](NC(=O)[C@H](Cc1ccccc1)NC(=O)[C@H](CC(=O)O)NC(=O)[C@H](CCCNC(=N)N)NC(=O)[C@H](C)NC(=O)[C@H](C)NC(=O)[C@H](CC(C)C)NC(=O)[C@H](C)NC(=O)[C@H](CC(=O)O)NC(=O)[C@H](CC(C)C)NC(=O)C(C)(C)NC(=O)[C@@H](NC(=O)[C@H](CO)NC(=O)[C@H](Cc1ccc(O)cc1)NC(=O)[C@H](CC(=O)O)NC(=O)[C@H](CO)NC(=O)[C@@H](NC(=O)[C@H](Cc1ccccc1)NC(=O)[C@@H](NC(=O)CNC(=O)[C@H](CC(=O)O)NC(=O)C(C)(C)NC(=O)[C@H](Cc1c[nH]cn1)NC(=O)CCCCCCCCCCCCCCC(=O)O)[C@@H](C)O)[C@@H](C)CC)[C@@H](C)O)C(=O)N[C@@H](CCC(=O)O)C(=O)N[C@@H](Cc1c[nH]c2ccccc12)C(=O)N[C@@H](CC(C)C)C(=O)N[C@H](C(=O)N[C@@H](CCC(N)=O)C(=O)N[C@H](C(=O)N[C@@H](CCCCN)C(=O)N[C@H](C(=O)N[C@H](C(=O)N[C@@H](CCCCN)C(=O)O)[C@@H](C)O)[C@@H](C)CC)[C@@H](C)O)[C@@H](C)CC
For the molecule B2, in experiment [1], the “Efficacy GLP-2R” value stood at 88%. For the same molecule, the “Efficacy GIPR” value in experiment [2] worked out at 93%.

B3: Compound no. 17 (peptide)
peptide: {C16 diacid}-H[Aib]DGTFISDYST[Aib]LDNLAARDFINWLIQTKITK-OH
SMILES: CC[C@H](C)[C@H](NC(=O)[C@H](Cc1ccccc1)NC(=O)[C@H](CC(=O)O)NC(=O)[C@H](CCCNC(=N)N)NC(=O)[C@H](C)NC(=O)[C@H](C)NC(=O)[C@H](CC(C)C)NC(=O)[C@H](CC(N)=O)NC(=O)[C@H](CC(=O)O)NC(=O)[C@H](CC(C)C)NC(=O)C(C)(C)NC(=O)[C@@H](NC(=O)[C@H](CO)NC(=O)[C@H](Cc1ccc(O)cc1)NC(=O)[C@H](CC(=O)O)NC(=O)[C@H](CO)NC(=O)[C@@H](NC(=O)[C@H](Cc1ccccc1)NC(=O)[C@@H](NC(=O)CNC(=O)[C@H](CC(=O)O)NC(=O)C(C)(C)NC(=O)[C@H](Cc1c[nH]cn1)NC(=O)CCCCCCCCCCCCCCC(=O)O)[C@@H](C)O)[C@@H](C)CC)[C@@H](C)O)C(=O)N[C@@H](CC(N)=O)C(=O)N[C@@H](Cc1c[nH]c2ccccc12)C(=O)N[C@@H](CC(C)C)C(=O)N[C@H](C(=O)N[C@@H](CCC(N)=O)C(=O)N[C@H](C(=O)N[C@@H](CCCCN)C(=O)N[C@H](C(=O)N[C@H](C(=O)N[C@@H](CCCCN)C(=O)O)[C@@H](C)O)[C@@H](C)CC)[C@@H](C)O)[C@@H](C)CC
In the case of B3, the “Efficacy GLP-2R” value in experiment [1] came out at 90%. Moreover, the “Efficacy GIPR” value in experiment [2] is 98%.

B4: Compound no. 22 (peptide)
peptide: {C16 diacid}-H[Aib]DGTFISDYST[Aib]LDKLAARDFIEWLIQTKITK-OH
SMILES: CC[C@H](C)[C@H](NC(=O)[C@H](Cc1ccccc1)NC(=O)[C@H](CC(=O)O)NC(=O)[C@H](CCCNC(=N)N)NC(=O)[C@H](C)NC(=O)[C@H](C)NC(=O)[C@H](CC(C)C)NC(=O)[C@H](CCCCN)NC(=O)[C@H](CC(=O)O)NC(=O)[C@H](CC(C)C)NC(=O)C(C)(C)NC(=O)[C@@H](NC(=O)[C@H](CO)NC(=O)[C@H](Cc1ccc(O)cc1)NC(=O)[C@H](CC(=O)O)NC(=O)[C@H](CO)NC(=O)[C@@H](NC(=O)[C@H](Cc1ccccc1)NC(=O)[C@@H](NC(=O)CNC(=O)[C@H](CC(=O)O)NC(=O)C(C)(C)NC(=O)[C@H](Cc1c[nH]cn1)NC(=O)CCCCCCCCCCCCCCC(=O)O)[C@@H](C)O)[C@@H](C)CC)[C@@H](C)O)C(=O)N[C@@H](CCC(=O)O)C(=O)N[C@@H](Cc1c[nH]c2ccccc12)C(=O)N[C@@H](CC(C)C)C(=O)N[C@H](C(=O)N[C@@H](CCC(N)=O)C(=O)N[C@H](C(=O)N[C@@H](CCCCN)C(=O)N[C@H](C(=O)N[C@H](C(=O)N[C@@H](CCCCN)C(=O)O)[C@@H](C)O)[C@@H](C)CC)[C@@H](C)O)[C@@H](C)CC
On to B4, for which the “Efficacy GLP-2R” value in experiment [1] turned out to be 95%. In addition, the “Efficacy GIPR” value in experiment [2] came out at 91%.

B5: Compound no. 19 (peptide)
peptide: {C16 diacid}-H[Aib]EGTFISDYST[Aib]LDNLAARDFINWLIQTKITK-OH
SMILES: CC[C@H](C)[C@H](NC(=O)[C@H](Cc1ccccc1)NC(=O)[C@H](CC(=O)O)NC(=O)[C@H](CCCNC(=N)N)NC(=O)[C@H](C)NC(=O)[C@H](C)NC(=O)[C@H](CC(C)C)NC(=O)[C@H](CC(N)=O)NC(=O)[C@H](CC(=O)O)NC(=O)[C@H](CC(C)C)NC(=O)C(C)(C)NC(=O)[C@@H](NC(=O)[C@H](CO)NC(=O)[C@H](Cc1ccc(O)cc1)NC(=O)[C@H](CC(=O)O)NC(=O)[C@H](CO)NC(=O)[C@@H](NC(=O)[C@H](Cc1ccccc1)NC(=O)[C@@H](NC(=O)CNC(=O)[C@H](CCC(=O)O)NC(=O)C(C)(C)NC(=O)[C@H](Cc1c[nH]cn1)NC(=O)CCCCCCCCCCCCCCC(=O)O)[C@@H](C)O)[C@@H](C)CC)[C@@H](C)O)C(=O)N[C@@H](CC(N)=O)C(=O)N[C@@H](Cc1c[nH]c2ccccc12)C(=O)N[C@@H](CC(C)C)C(=O)N[C@H](C(=O)N[C@@H](CCC(N)=O)C(=O)N[C@H](C(=O)N[C@@H](CCCCN)C(=O)N[C@H](C(=O)N[C@H](C(=O)N[C@@H](CCCCN)C(=O)O)[C@@H](C)O)[C@@H](C)CC)[C@@H](C)O)[C@@H](C)CC
Turning to B5, the “Efficacy GLP-2R” value in experiment [1] turned out to be 81%. For the same molecule, in experiment [2], the “Efficacy GIPR” value amounted to 98%.

B6: Compound no. 21 (peptide)
peptide: {C16 diacid}-H[Aib]EGTFISDYST[Aib]LDKLAARDFINWLIQTKITK-OH
SMILES: CC[C@H](C)[C@H](NC(=O)[C@H](Cc1ccccc1)NC(=O)[C@H](CC(=O)O)NC(=O)[C@H](CCCNC(=N)N)NC(=O)[C@H](C)NC(=O)[C@H](C)NC(=O)[C@H](CC(C)C)NC(=O)[C@H](CCCCN)NC(=O)[C@H](CC(=O)O)NC(=O)[C@H](CC(C)C)NC(=O)C(C)(C)NC(=O)[C@@H](NC(=O)[C@H](CO)NC(=O)[C@H](Cc1ccc(O)cc1)NC(=O)[C@H](CC(=O)O)NC(=O)[C@H](CO)NC(=O)[C@@H](NC(=O)[C@H](Cc1ccccc1)NC(=O)[C@@H](NC(=O)CNC(=O)[C@H](CCC(=O)O)NC(=O)C(C)(C)NC(=O)[C@H](Cc1c[nH]cn1)NC(=O)CCCCCCCCCCCCCCC(=O)O)[C@@H](C)O)[C@@H](C)CC)[C@@H](C)O)C(=O)N[C@@H](CC(N)=O)C(=O)N[C@@H](Cc1c[nH]c2ccccc12)C(=O)N[C@@H](CC(C)C)C(=O)N[C@H](C(=O)N[C@@H](CCC(N)=O)C(=O)N[C@H](C(=O)N[C@@H](CCCCN)C(=O)N[C@H](C(=O)N[C@H](C(=O)N[C@@H](CCCCN)C(=O)O)[C@@H](C)O)[C@@H](C)CC)[C@@H](C)O)[C@@H](C)CC
With B6, the “Efficacy GLP-2R” value in experiment [1] is 58%. In addition, the “Efficacy GIPR” value in experiment [2] came out at 86%.

Take H-H[Aib]DGTFISDYK([γGlu-Palmitoyl])TILDNLAARDFINWLIQTKGKKNDWKHNITQ-NH2 [Compound no. 14]: the “Efficacy GLP-2R” value in experiment [1] came to 114%. Besides, the “Efficacy GIPR” value in experiment [2] amounted to 101%.
